Here are results for 12 molecules from patent US20240279325A1 (Chugai, published 2024).

The assay has as its target T1, human FcγRIIIa type V (allotype V158) extracellular domain with C-terminal His tag (human, UniProt P08637 17-208).
T1 construct: also called FcγRIIIaV
As to the kind of experiment: SPR (Biacore), antibody captured, FcγR analyte. Background: SPR reads the build-up and loss of mass on a sensor chip optically.

T1 sequence (P08637 other isoform, or with tags, fused parts or gaps): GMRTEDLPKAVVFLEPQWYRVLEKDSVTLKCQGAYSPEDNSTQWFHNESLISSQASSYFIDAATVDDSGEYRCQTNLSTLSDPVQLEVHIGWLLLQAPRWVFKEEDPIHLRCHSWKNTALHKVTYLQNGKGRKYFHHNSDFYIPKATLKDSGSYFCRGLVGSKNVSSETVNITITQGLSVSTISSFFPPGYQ

B1: IL6R-2B002/IL6R-L (antibody, human IgG1, kappa, name in EU numbering)
heavy: QVQLQESGPGLVKPSETLSLTCAVSGHSISHDHAWSWVRQPPGEGLEWIGFISYSGITNYNPSLQGRVTISRDNSKNTLYLQMNSLRAEDTAVYYCARSLARTTAMDYWGEGTLVTVSSASTKGPSVFPLAPSSKSTSGGTAALGCLVKDYFPEPVTVSWNSGALTSGVHTFPAVLQSSGLYSLSSVVTVPSSSLGTQTYICNVNHKPSNTKVDKKVEPKSCDKTHTCPPCPAPDLLGGDSVFLFPPKPKDTLMISRTPEVTCVVVDVSHEDPEVKFNWYVDGVEVHNAKTKPREEQYNSTYRVVSVLTVLHQDWLNGKEYKCKVSNKALPAPIEKTISKAKGQPREPQVYTLPPSRDELTKNQVSLTCLVKGFYPSDIAVEWESNGQPENNYKTTPPVLDSDGSFFLYSKLTVDKSRWQQGNVFSCSVMHEALHNHYTQESLSLSP
light: not shown
notes: Alterations introduced into IL6R-B3; also called P238D/E233D; copies: 2 + 2
With B1, binding was characterised by a dissociation constant (Kd) of 53 µM.

B2: IL6R-BP106/IL6R-L (antibody, human IgG1, kappa, name in EU numbering)
heavy: QVQLQESGPGLVKPSETLSLTCAVSGHSISHDHAWSWVRQPPGEGLEWIGFISYSGITNYNPSLQGRVTISRDNSKNTLYLQMNSLRAEDTAVYYCARSLARTTAMDYWGEGTLVTVSSASTKGPSVFPLAPSSKSTSGGTAALGCLVKDYFPEPVTVSWNSGALTSGVHTFPAVLQSSGLYSLSSVVTVPSSSLGTQTYICNVNHKPSNTKVDKKVEPKSCDKTHTCPPCPAPELLGGDSVFLFPPKPKDTLMISRTPEVTCVVVDVSDEDPEVKFNWYVDGVEVHNAKTKPREEQYNSTYRVVSVLTVLHQDWLNGKEYKCKVSNKALPAPIEKTISKAKGQPREPQVYTLPPSRDELTKNQVSLTCLVKGFYPSDIAVEWESNGQPENNYKTTPPVLDSDGSFFLYSKLTVDKSRWQQGNVFSCSVMHEALHNHYTQESLSLSP
light: not shown
notes: Alterations introduced into IL6R-B3; also called P238D/H268D; copies: 2 + 2
For the molecule B2, the Kd (usually a measure of binding affinity in units of concentration) turned out to be 55 µM.

B3: IL6R-BP107/IL6R-L (antibody, human IgG1, kappa, name in EU numbering)
heavy: QVQLQESGPGLVKPSETLSLTCAVSGHSISHDHAWSWVRQPPGEGLEWIGFISYSGITNYNPSLQGRVTISRDNSKNTLYLQMNSLRAEDTAVYYCARSLARTTAMDYWGEGTLVTVSSASTKGPSVFPLAPSSKSTSGGTAALGCLVKDYFPEPVTVSWNSGALTSGVHTFPAVLQSSGLYSLSSVVTVPSSSLGTQTYICNVNHKPSNTKVDKKVEPKSCDKTHTCPPCPAPELLGGDSVFLFPPKPKDTLMISRTPEVTCVVVDVSEEDPEVKFNWYVDGVEVHNAKTKPREEQYNSTYRVVSVLTVLHQDWLNGKEYKCKVSNKALPAPIEKTISKAKGQPREPQVYTLPPSRDELTKNQVSLTCLVKGFYPSDIAVEWESNGQPENNYKTTPPVLDSDGSFFLYSKLTVDKSRWQQGNVFSCSVMHEALHNHYTQESLSLSP
light: not shown
notes: Alterations introduced into IL6R-B3; also called P238D/H268E; copies: 2 + 2
For B3, the Kd is 63 µM.

B4: IL6R-BP103/IL6R-L (antibody, human IgG1, kappa, name in EU numbering)
heavy: QVQLQESGPGLVKPSETLSLTCAVSGHSISHDHAWSWVRQPPGEGLEWIGFISYSGITNYNPSLQGRVTISRDNSKNTLYLQMNSLRAEDTAVYYCARSLARTTAMDYWGEGTLVTVSSASTKGPSVFPLAPSSKSTSGGTAALGCLVKDYFPEPVTVSWNSGALTSGVHTFPAVLQSSGLYSLSSVVTVPSSSLGTQTYICNVNHKPSNTKVDKKVEPKSCDKTHTCPPCPAPELLGGDSVFLFPPKPKDTLMISRTPEVTCVVVDVVHEDPEVKFNWYVDGVEVHNAKTKPREEQYNSTYRVVSVLTVLHQDWLNGKEYKCKVSNKALPAPIEKTISKAKGQPREPQVYTLPPSRDELTKNQVSLTCLVKGFYPSDIAVEWESNGQPENNYKTTPPVLDSDGSFFLYSKLTVDKSRWQQGNVFSCSVMHEALHNHYTQESLSLSP
light: not shown
notes: Alterations introduced into IL6R-B3; also called P238D/S267V; copies: 2 + 2
Regarding B4, the Kd is 110 µM.

B5: IL6R-BP078/IL6R-L (antibody, human IgG1, kappa, name in EU numbering)
heavy: QVQLQESGPGLVKPSETLSLTCAVSGHSISHDHAWSWVRQPPGEGLEWIGFISYSGITNYNPSLQGRVTISRDNSKNTLYLQMNSLRAEDTAVYYCARSLARTTAMDYWGEGTLVTVSSASTKGPSVFPLAPSSKSTSGGTAALGCLVKDYFPEPVTVSWNSGALTSGVHTFPAVLQSSGLYSLSSVVTVPSSSLGTQTYICNVNHKPSNTKVDKKVEPKSCDKTHTCPPCPAPELLGGDSVFLFPPKPKDTLMISRTPEVTCVVVDVSHEDPEVKFNWYVDGVEVHNAKTKPREEQYNSTYRVVSVLTVLHQDWLNGKEYKCKVSNKALPMPIEKTISKAKGQPREPQVYTLPPSRDELTKNQVSLTCLVKGFYPSDIAVEWESNGQPENNYKTTPPVLDSDGSFFLYSKLTVDKSRWQQGNVFSCSVMHEALHNHYTQESLSLSP
light: not shown
notes: Alterations introduced into IL6R-B3; also called P238D/A330M; copies: 2 + 2
Consider B5, for which binding was put at a Kd of 78 µM.

B6: IL6R-2B172/IL6R-L (antibody, human IgG1, kappa, name in EU numbering)
heavy: QVQLQESGPGLVKPSETLSLTCAVSGHSISHDHAWSWVRQPPGEGLEWIGFISYSGITNYNPSLQGRVTISRDNSKNTLYLQMNSLRAEDTAVYYCARSLARTTAMDYWGEGTLVTVSSASTKGPSVFPLAPSSKSTSGGTAALGCLVKDYFPEPVTVSWNSGALTSGVHTFPAVLQSSGLYSLSSVVTVPSSSLGTQTYICNVNHKPSNTKVDKKVEPKSCDKTHTCPPCPAPELLGGDSVFLFPPKPKDTLMISRTPEVTCVVVDVSHEDPEVKFNWYVDGVEVHNAKTKPREEQYNSTYRVVSVLTVLHQDWLNGKEYKCKMSNKALPAPIEKTISKAKGQPREPQVYTLPPSRDELTKNQVSLTCLVKGFYPSDIAVEWESNGQPENNYKTTPPVLDSDGSFFLYSKLTVDKSRWQQGNVFSCSVMHEALHNHYTQESLSLSP
light: not shown
notes: Alterations introduced into IL6R-B3; also called P238D/V323M; copies: 2 + 2
B6 came in with a Kd of 48 µM.

B7: IL6R-2B128/IL6R-L (antibody, human IgG1, kappa, name in EU numbering)
heavy: QVQLQESGPGLVKPSETLSLTCAVSGHSISHDHAWSWVRQPPGEGLEWIGFISYSGITNYNPSLQGRVTISRDNSKNTLYLQMNSLRAEDTAVYYCARSLARTTAMDYWGEGTLVTVSSASTKGPSVFPLAPSSKSTSGGTAALGCLVKDYFPEPVTVSWNSGALTSGVHTFPAVLQSSGLYSLSSVVTVPSSSLGTQTYICNVNHKPSNTKVDKKVEPKSCDKTHTCPPCPAPELLGGDSVFLFPPKPKDTLMISRTPEVTCVVVDVSHEDPEVKFNWYVDGVEVHNAKTKPREEQDNSTYRVVSVLTVLHQDWLNGKEYKCKVSNKALPAPIEKTISKAKGQPREPQVYTLPPSRDELTKNQVSLTCLVKGFYPSDIAVEWESNGQPENNYKTTPPVLDSDGSFFLYSKLTVDKSRWQQGNVFSCSVMHEALHNHYTQESLSLSP
light: not shown
notes: Alterations introduced into IL6R-B3; also called P238D/Y296D; copies: 2 + 2
The molecule B7 showed a Kd of 72 µM.

B8: IL6R-BP100/IL6R-L (antibody, human IgG1, kappa, name in EU numbering)
heavy: QVQLQESGPGLVKPSETLSLTCAVSGHSISHDHAWSWVRQPPGEGLEWIGFISYSGITNYNPSLQGRVTISRDNSKNTLYLQMNSLRAEDTAVYYCARSLARTTAMDYWGEGTLVTVSSASTKGPSVFPLAPSSKSTSGGTAALGCLVKDYFPEPVTVSWNSGALTSGVHTFPAVLQSSGLYSLSSVVTVPSSSLGTQTYICNVNHKPSNTKVDKKVEPKSCDKTHTCPPCPAPELLGGDSVFLFPPKPKDTLMISRTPEVTCVVVDVAHEDPEVKFNWYVDGVEVHNAKTKPREEQYNSTYRVVSVLTVLHQDWLNGKEYKCKVSNKALPAPIEKTISKAKGQPREPQVYTLPPSRDELTKNQVSLTCLVKGFYPSDIAVEWESNGQPENNYKTTPPVLDSDGSFFLYSKLTVDKSRWQQGNVFSCSVMHEALHNHYTQESLSLSP
light: not shown
notes: Alterations introduced into IL6R-B3; also called P238D/S267A; copies: 2 + 2
Molecule B8 displayed a Kd of 59 µM.

B9: IL6R-BP110/IL6R-L (antibody, human IgG1, kappa, name in EU numbering)
heavy: QVQLQESGPGLVKPSETLSLTCAVSGHSISHDHAWSWVRQPPGEGLEWIGFISYSGITNYNPSLQGRVTISRDNSKNTLYLQMNSLRAEDTAVYYCARSLARTTAMDYWGEGTLVTVSSASTKGPSVFPLAPSSKSTSGGTAALGCLVKDYFPEPVTVSWNSGALTSGVHTFPAVLQSSGLYSLSSVVTVPSSSLGTQTYICNVNHKPSNTKVDKKVEPKSCDKTHTCPPCPAPELLGGDSVFLFPPKPKDTLMISRTPEVTCVVVDVSNEDPEVKFNWYVDGVEVHNAKTKPREEQYNSTYRVVSVLTVLHQDWLNGKEYKCKVSNKALPAPIEKTISKAKGQPREPQVYTLPPSRDELTKNQVSLTCLVKGFYPSDIAVEWESNGQPENNYKTTPPVLDSDGSFFLYSKLTVDKSRWQQGNVFSCSVMHEALHNHYTQESLSLSP
light: not shown
notes: Alterations introduced into IL6R-B3; also called P238D/H268N; copies: 2 + 2
On to B9, for which the equilibrium dissociation constant (Kd) was determined as 64 µM.

B10: IL6R-2B169/IL6R-L (antibody, human IgG1, kappa, name in EU numbering)
heavy: QVQLQESGPGLVKPSETLSLTCAVSGHSISHDHAWSWVRQPPGEGLEWIGFISYSGITNYNPSLQGRVTISRDNSKNTLYLQMNSLRAEDTAVYYCARSLARTTAMDYWGEGTLVTVSSASTKGPSVFPLAPSSKSTSGGTAALGCLVKDYFPEPVTVSWNSGALTSGVHTFPAVLQSSGLYSLSSVVTVPSSSLGTQTYICNVNHKPSNTKVDKKVEPKSCDKTHTCPPCPAPELLGGDSVFLFPPKPKDTLMISRTPEVTCVVVDVSHEDPEVKFNWYVDGVEVHNAKTKPREEQYNSTYRVVSVLTVLHQDWLNGKEYKCKISNKALPAPIEKTISKAKGQPREPQVYTLPPSRDELTKNQVSLTCLVKGFYPSDIAVEWESNGQPENNYKTTPPVLDSDGSFFLYSKLTVDKSRWQQGNVFSCSVMHEALHNHYTQESLSLSP
light: not shown
notes: Alterations introduced into IL6R-B3; also called P238D/V323I; copies: 2 + 2
Regarding B10, the affinity, expressed as Kd, was 75 µM.

B11: IL6R-2B171/IL6R-L (antibody, human IgG1, kappa, name in EU numbering)
heavy: QVQLQESGPGLVKPSETLSLTCAVSGHSISHDHAWSWVRQPPGEGLEWIGFISYSGITNYNPSLQGRVTISRDNSKNTLYLQMNSLRAEDTAVYYCARSLARTTAMDYWGEGTLVTVSSASTKGPSVFPLAPSSKSTSGGTAALGCLVKDYFPEPVTVSWNSGALTSGVHTFPAVLQSSGLYSLSSVVTVPSSSLGTQTYICNVNHKPSNTKVDKKVEPKSCDKTHTCPPCPAPELLGGDSVFLFPPKPKDTLMISRTPEVTCVVVDVSHEDPEVKFNWYVDGVEVHNAKTKPREEQYNSTYRVVSVLTVLHQDWLNGKEYKCKLSNKALPAPIEKTISKAKGQPREPQVYTLPPSRDELTKNQVSLTCLVKGFYPSDIAVEWESNGQPENNYKTTPPVLDSDGSFFLYSKLTVDKSRWQQGNVFSCSVMHEALHNHYTQESLSLSP
light: not shown
notes: Alterations introduced into IL6R-B3; also called P238D/V323L; copies: 2 + 2
B11 gave a Kd of 57 µM.

B12: IL6R-BP102/IL6R-L (antibody, human IgG1, kappa, name in EU numbering)
heavy: QVQLQESGPGLVKPSETLSLTCAVSGHSISHDHAWSWVRQPPGEGLEWIGFISYSGITNYNPSLQGRVTISRDNSKNTLYLQMNSLRAEDTAVYYCARSLARTTAMDYWGEGTLVTVSSASTKGPSVFPLAPSSKSTSGGTAALGCLVKDYFPEPVTVSWNSGALTSGVHTFPAVLQSSGLYSLSSVVTVPSSSLGTQTYICNVNHKPSNTKVDKKVEPKSCDKTHTCPPCPAPELLGGDSVFLFPPKPKDTLMISRTPEVTCVVVDVQHEDPEVKFNWYVDGVEVHNAKTKPREEQYNSTYRVVSVLTVLHQDWLNGKEYKCKVSNKALPAPIEKTISKAKGQPREPQVYTLPPSRDELTKNQVSLTCLVKGFYPSDIAVEWESNGQPENNYKTTPPVLDSDGSFFLYSKLTVDKSRWQQGNVFSCSVMHEALHNHYTQESLSLSP
light: not shown
notes: Alterations introduced into IL6R-B3; also called P238D/S267Q; copies: 2 + 2
For B12, the affinity, expressed as Kd, was 82 µM.
